According to the supplement of paper PMC12042874:
± gives the uncertainty stated by the source.

Test: amyloid nucleation score (Sup35N fusion, yeast selection) (log enrichment); library NNK3; higher = more nucleation; inactive = no reads after selection
How it was run: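 Sup35N fusions to peptides of 20 random codons were expressed in psi-negative yeast, induced 24 hours with 100 μM copper sulfate, and grown 7 days at 30°C on medium lacking adenine and uracil. Input and output plasmid inserts were sequenced by Illumina. The nucleation score is the DiMSum log enrichment of output over input reads, centred on the mode score of non-aggregating sequences. Sequences with under 100 input reads were excluded.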

| Substance | amyloid nucleation score |
| --- | --- |
| CGYKEVGVPASRRMNS | inactive |
| CHHLRWDNCVRREELDFTCV | inactive |
| CHKVLWSSVKTVDFMLSNMG | inactive |
| CHRRLML | inactive |
| CHVLWGCCIRSQVCCSAYNV | 2.06 ± 0.073 |
| CIFYDSLVDWDHHYSHKGWH | inactive |
| CIGGWDIKGKQ | inactive |
| CIRVKHFCISHEDKR | inactive |
| CIRVTMSNMMVESWVYGDKP | 0.586 ± 0.15 |
| CIVYSFSRGFTSNGGEGYRW | 0.67 ± 0.22 |
| CIYWLEF | 1.57 ± 0.084 |
| CKDSDSTIPRMLLLRLKTEL | inactive |
| CKIGYPTYNVGVIVSLVVRM | 1.61 ± 0.066 |
| CKVHECHVPAG | inactive |
| CKVYGKSLVMAYN | inactive |
| CLCSMHLRWRSSNWRGYEHF | 0.474 ± 0.31 |
| CLFRYSEYSVGKLMGYCDCG | inactive |
| CLFSHYLV | inactive |
| CLGADCVAHFSYFHA | inactive |
| CLKVSTKCFW | 0.097 ± 0.52 |
| CLLCGSRHFRHRLGFVSYRI | inactive |
| CLLYSYCCPRKIVN | inactive |
| CLPVARGQMR | inactive |

| Substance | amyloid nucleation score |
| --- | --- |
| CLQSARYKIFCFFYFDVLSH | inactive |
| CLSLDQWWLHRYDHLVLGET | inactive |
| CLSLKNERHQVFMSRIGNRA | inactive |
| CLVTGWISSILNWFLYWNWE | inactive |
| CLVWG | inactive |
| CLWFISRQFDLYHRVMGNRS | inactive |
| CLYVSLS | inactive |
| CMDKFWCVVYA | -0.416 ± 1.5 |
| CMFNGGDWNHNVRELGRQSS | inactive |
| CMFRLMIPSIKTNAISIALC | 0.068 ± 0.9 |
| CMHGRGMWMNIACAFSCRQF | 0.063 ± 0.69 |
| CMIFGVSLAYVCGCSLYGVG | inactive |
| CMLCKPWSSQVNSY | inactive |
| CMLDKSAIIMTRMECIVLSY | inactive |
| CMMWNRGFT | inactive |
| CMRGWNSRVE | inactive |
| CMVLRYVTVVSGMSQAKRMY | inactive |
| CNCVAKDKVMLHVSRRRADF | 0.201 ± 0.72 |
| CNDGSHCLGYY | inactive |
| CNDLVYFMMFVLYLVTRWET | inactive |
| CNGFFCGMCCYTKRKMKYAI | inactive |
| CNISSFNT | inactive |
| CNKGSNTYVVDYAVGNGH | inactive |

| Substance | amyloid nucleation score |
| --- | --- |
| CNLALFTRGWGEYMIVSCCK | inactive |
| CNLRMCNGA | inactive |
| CNMRVERLMSLFSL | inactive |
| CNNLFFSWLKFMLIGIMGH | inactive |
| CNPLFTYNKPSVDKSV | inactive |
| CNSYTYVEGSNYNGSSQGLD | inactive |
| CNVASSNFRCHYSQMRRFCE | inactive |
| CNVFWVPTVRLIFKMYKVSR | 0.417 ± 0.36 |
| CPAYMYCTGMSVNTCPGKGG | inactive |
| CPESLWNKSYVYAGALTFLR | inactive |
| CPFPRLSICVACNEYDNQLS | inactive |
| CPTCWRYVNIRYSI | inactive |
| CQHSRRLKGAAYKSCQMYRR | inactive |
| CQWANY | -0.508 ± 1 |
| CQYPCVMLCQC | 0.504 ± 0.19 |
| CRGLLYISVNYNMILFQHTR | inactive |
| CRRNTVFMNRVYNNGLFEEC | inactive |
| CRSQMHWLYSQRQIMPVLRS | inactive |
| CRVSGMDICLWSMMCDSVGS | inactive |
| CRYYNSC | inactive |
| CSCWFFLVHNFNNIYRILWK | inactive |
| CSFSISSSGVLWRGKERPIG | 1.05 ± 0.18 |
| CSGFRVNSSTVIGYLSILLK | inactive |

| Substance | amyloid nucleation score |
| --- | --- |
| CSGGGGKRGLLSTLTEPMRR | inactive |
| CSGISSNGGLLTLGCCFCRG | 2.96 ± 0.076 |
| CSILACSA | inactive |
| CSIYNCMSHHKRVTG | 1.2 ± 0.15 |
| CSLRPNSERTSVIYNALHVN | inactive |
| CSMPWLRSSTGGGVLLIEKS | inactive |
| CSPKPNKKAAMYKSAYNPGM | 0.629 ± 0.17 |
| CSRIRLMGFDWLAPIPHA | inactive |
| CSTYSRLRYIAYCWVVRP | inactive |
| CSVFPQVRLCPRSSANQELD | inactive |
| CSVLDKEVFGGTSQDSDSYL | inactive |
| CSWRNRYCMLRRELFGAWRV | inactive |
| CSYRCYSLGCNMQIV | inactive |
| CTGYDCVGMGADFCARMWHC | inactive |
| CTKKM | inactive |
| CTLIAKHNQA | inactive |
| CVADHLSCISTRGNCCYMSG | 0.473 ± 0.26 |
| CVAYSRTEVRFYRYEHLWV | 1.18 ± 0.12 |
| CVDQT | inactive |
| CVFRYLVHHERMSYILNAGC | inactive |
| CVFYCSKLWIRYNNVMMISS | 0.831 ± 0.1 |
| CVGHVRSYYGMQIPKGLKLS | inactive |
| CVGVF | inactive |

| Substance | amyloid nucleation score |
| --- | --- |
| CVLSVEYGHNQEDAITMRCE | inactive |
| CVPGYGYRLNYSL | inactive |
| CVPNWVVCRLSIYKF | inactive |
| CVSGDCVMIMFYLFSPVAVV | inactive |
| CVSPDCMLMGAHDYGVERWL | inactive |
| CVTSVVFRFRQHGYTRKGMA | 1.27 ± 0.15 |
| CVVNGDLVASLKSLFLGWCL | inactive |
| CVYGPRFNF | 1.94 ± 0.067 |
| CWAYVMRT | inactive |
| CWEFYVVLYRLLGICKIRVL | inactive |
| CWFRLYQRNARVVDNFVNHG | inactive |
| CWQFK | 0.22 ± 0.9 |
| CWRVCGARYLWA | inactive |
| CWTTINVSGCPNVGGGTVLQ | 0.9 ± 0.17 |
| CYCLLGVRLHVWIS | inactive |
| CYGFSK | inactive |
| CYLCVAAGWSMATPLRGGLA | inactive |
| CYPTSFGCFFVFFWYYVYCG | inactive |
| CYRCVCFLLCGFVQSDCYDD | inactive |
| CYVLVMKIPSHFKGTFMWHI | inactive |
| CYVNYWESDMLRTAVPNCTF | inactive |
| DAFRSSYWIICMTEAHLYKF | inactive |
| DAGYDVVLGSMAMVSVGTCL | inactive |

| Substance | amyloid nucleation score |
| --- | --- |
| DATRSCLWMYAIVYNACIGH | inactive |
| DAYNVYMMSSRPAHYQGHYL | inactive |
| DCAYMCNVYFLVLGSAKLFI | 1.27 ± 0.17 |
| DCFMGPLVSNCGFYECRLSV | inactive |
| DCHLPKIKYFAITYFCFFRR | inactive |
| DCRAIVLRL | inactive |
| DCVNWTWHTTDNLVVTYSYN | inactive |
| DDDRGGSTMTATHRRRMWHL | inactive |
| DDECELNMRYNGREYQGTDG | inactive |
| DDHLGKVGSGFRIGICTLQN | inactive |
| DDLRYRNE | inactive |
| DDPQVGLNFAQSYALPEYFA | inactive |
| DDSNCKRKDRVVSVRMMDLT | inactive |
| DEANRYPRYLYILERLAYRK | inactive |
| DEFVCLEVDNLCMVCSEKM | -0.067 ± 0.73 |
| DEIPCDVRGLMPTRVSTLNL | inactive |
| DENVALFFLF | inactive |
| DFAVGLLVHWHNPHYNTELQ | 1.25 ± 0.13 |
| DFGFYWSSVGHAGLETKLYP | inactive |
| DFHIKERG | inactive |
| DFISERHYHRPAGPA | inactive |
| DFVDARFWQIFGFSNAEQGL | inactive |
| DFVRVEMNYLDENDGGCYL | inactive |

| Substance | amyloid nucleation score |
| --- | --- |
| DGKFRSNWSYGVLWMLVFLY | inactive |
| DGMTMFLSYN | -0.208 ± 1.1 |
| DGSIGRGVDRRLTKSSQPAL | inactive |
| DGTMANRIVVF | inactive |
| DGVLSVGSLCNDRFVLEMYG | -0.432 ± 1 |
| DHKFGNMLAFESRLVLYQIK | inactive |
| DHQLSGGDGVGSMYSTEGKL | inactive |
| DHVAG | inactive |
| DIIVKQLPKRYGPTMSIRNM | -0.057 ± 0.58 |
| DILFTSIS | 0.257 ± 0.41 |
| DILGVCLSMNYWVI | inactive |
| DILIREFDYLTSTHLDDKIR | inactive |
| DIVGHIKSLMFLVLEDTSSP | inactive |
| DKDMNEQVS | inactive |
| DKFLFLCMG | inactive |
| DKGQRVNSSGRVCNMNMGYW | inactive |
| DKRNSLGCGLNYGFKADDGW | inactive |
| DLAINGSAAQTVVLRAERSY | inactive |
| DLDCGTSDMLCCRLVCC | inactive |
| DLFKTVPYRWGFRYHIGIYM | inactive |
| DLGLERLAFS | inactive |
